Assay results published in patent publication US20060280751A1.

Tests used:
[1] = biological target: envelope glycoprotein gp120 of HIV-1 laboratory strain IIIB (HIV-1 IIIB strain); test: cell-based or functional assay
[2] = biological target: envelope glycoprotein gp120 of HIV-1 laboratory strain 89.6 (HIV-1 89.6 strain) (UniProt Q73372); test: cell-based or functional assay
[3] = biological target: envelope glycoprotein gp120 of HIV-1 laboratory strain MN (HIV-1 MN strain) (UniProt P05877); test: cell-based or functional assay
[4] = biological target: envelope glycoprotein gp120 of HIV-1 laboratory strain AD8 (HIV-1 AD8 strain); test: cell-based or functional assay
[5] = biological target: envelope glycoprotein gp120 of HIV-1 laboratory strain SF2 (HIV-1 SF2 strain); test: cell-based or functional assay
[6] = biological target: V3/β-Gal from patients' HIV-1 clones with IGPGRAF in the middle portion of V3 region (HIV-1 from patients); test: sandwich ELISA: V3/β-Gal (200 ng/ml) captured by anti-β-Gal antibody, 1 µg/ml KD-247
[7] = biological target: V3/β-Gal from patients' HIV-1 clones with VGPGRAL in the middle portion of V3 region (HIV-1 from patients); test: as above
[8] = biological target: V3/β-Gal from patients' HIV-1 clones with IGPGRTF in the middle portion of V3 region (HIV-1 from patients); test: as above
[9] = biological target: V3/β-Gal from patients' HIV-1 clones with IGPGRAL in the middle portion of V3 region (HIV-1 from patients); test: as above
[10] = biological target: V3/β-Gal from patients' HIV-1 clones with IGPARAF in the middle portion of V3 region (HIV-1 from patients); test: as above
[11] = biological target: V3/β-Gal from patients' HIV-1 clones with IGPGRAI in the middle portion of V3 region (HIV-1 from patients); test: as above
[12] = biological target: V3/β-Gal from patients' HIV-1 clones with IGPGRSF in the middle portion of V3 region (HIV-1 from patients); test: as above

“KD-247, a humanized monoclonal antibody to PND region” was tested, and the Neutralizing activity IC50 (p24 antigen in PBMC culture) [1] was > 50 µg/mL, the Neutralizing activity IC90 (p24 antigen in PBMC culture) [1] was > 50 µg/mL and the Neutralizing activity IC50 (p24 antigen in PBMC culture) [2] was 0.2 µg/mL. The Neutralizing activity IC90 (p24 antigen in PBMC culture) [2] was 2.5 µg/mL, the Neutralizing activity IC50 (p24 antigen in PBMC culture) [3] was 0.1 µg/mL and the Neutralizing activity IC90 (p24 antigen in PBMC culture) [3] was 1 µg/mL. For the same substance, the Neutralizing activity IC50 (p24 antigen in PBMC culture) [4] was 5 µg/mL, the Neutralizing activity IC90 (p24 antigen in PBMC culture) [4] was 10 µg/mL and the Neutralizing activity IC50 (p24 antigen in PBMC culture) [5] was 1 µg/mL. For the same substance, the Neutralizing activity IC90 (p24 antigen in PBMC culture) [5] was 5 µg/mL, the relative binding (% of V3/β-Gal from MN strain) [6] was > 100% and the relative binding (% of V3/β-Gal from MN strain) [7] was > 100%. The relative binding (% of V3/β-Gal from MN strain) [8] was > 100%, the relative binding (% of V3/β-Gal from MN strain) [9] was > 100% and the relative binding (% of V3/β-Gal from MN strain) [10] was > 100%. The relative binding (% of V3/β-Gal from MN strain) [11] was > 100% and the relative binding (% of V3/β-Gal from MN strain) [12] was > 100%.
